Where “and” joins values, the source holds several entries; their conditions need not be identical. Identical values can stand only once.
How the values were obtained:
Assay in all cases: SEC
[1] = target: DEBS3M5 KS0-AT didomain, wild type (6-deoxyerythronolide B synthase module 5, KS knockout) (Saccharopolyspora erythraea)
[2] = target: RAPS3M14 KS0-AT didomain (rapamycin synthase module 14) (Streptomyces hygroscopicus)
[3] = target: DEBS3M5 KS0-AT R850S (Saccharopolyspora erythraea)
[4] = target: DEBS3M5 KS0-AT A539F (Saccharopolyspora erythraea)
[5] = target: DEBS3M5 KS0-AT R850A (Saccharopolyspora erythraea)
[6] = target: PikAIIIM5 KS0-AT didomain (pikromycin synthase module 5) (Streptomyces venezuelae)
[7] = target: DEBS3M5 KS0-AT R850E (Saccharopolyspora erythraea)
[8] = target: Pks7 KS0-AT didomain (Saccharopolyspora erythraea)
[9] = target: DEBS3M5 KS0-AT A539E (Saccharopolyspora erythraea)
[10] = target: DEBS3M5 KS0-AT R850K (Saccharopolyspora erythraea)
[11] = target: DEBS3M5 KS0-AT R850F (Saccharopolyspora erythraea)
[12] = target: DEBS3M5 KS0-AT A539S (Saccharopolyspora erythraea)
[13] = target: DEBS3M5 KS0-AT A539D (Saccharopolyspora erythraea)

DEBS3M5 KS0-AT didomain, wild type (6-deoxyerythronolide B synthase module 5, KS knockout) (domain or fragment)
stoichiometry N [1]: 4 and 2

RAPS3M14 KS0-AT didomain (rapamycin synthase module 14) (domain or fragment)
stoichiometry N [2]: 4

DEBS3M5 KS0-AT R850S (domain or fragment)
stoichiometry N [3]: 4 and 2

DEBS3M5 KS0-AT A539F (domain or fragment)
stoichiometry N [4]: 4 and 2

DEBS3M5 KS0-AT R850A (domain or fragment)
stoichiometry N [5]: 4 and 2

PikAIIIM5 KS0-AT didomain (pikromycin synthase module 5) (domain or fragment)
stoichiometry N [6]: 2

DEBS3M5 KS0-AT R850E (domain or fragment)
stoichiometry N [7]: 4 and 2

Pks7 KS0-AT didomain (domain or fragment)
stoichiometry N [8]: 2

DEBS3M5 KS0-AT A539E (domain or fragment)
stoichiometry N [9]: 4 and 2

DEBS3M5 KS0-AT R850K (domain or fragment)
stoichiometry N [10]: 4 and 2

DEBS3M5 KS0-AT R850F (domain or fragment)
stoichiometry N [11]: 4 and 2

DEBS3M5 KS0-AT A539S (domain or fragment)
stoichiometry N [12]: 4 and 2

DEBS3M5 KS0-AT A539D (domain or fragment)
stoichiometry N [13]: 4 and 2
